A short description of data set [1]: folding stability dG unfold from chymotrypsin proteolysis; higher = more stable. The essentials: (§1)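 K50 was inferred by Bayesian fitting of sequencing counts obtained after protease digestion of designed mini-proteins. Unfolding free energy was derived by comparison with a sequence-predicted unfolded-state K50 and a shared folded-state K50, for each protease or both combined. The mini-proteins were under 80 residues, had no cysteine, were carried in a PA-tagged cDNA display construct, and were kept only if AlphaFold2 dimer inter-PAE exceeded 15.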

Data set [2] in a line: folding stability dG unfold from trypsin proteolysis; higher = more stable. The essentials:
as §1

Data set [3] can be described thus: folding stability dG unfold (combined trypsin and chymotrypsin); higher = more stable. The essentials: as §1

± gives the half width of the 95% confidence interval.

Regarding “SAGGSAGGKPIWEFELEFPDGYKIRITYWPGYVRVEIHNPDGRQLEVNVPGKSPEDALDALLDASAGGSAGG [r6_459_TrROS]”, the “folding stability dG unfold” value in data set [1] was found to be 4.19 ± 0.19 kcal/mol; in data set [2], 3.32 ± 0.22 kcal/mol; in data set [3], 3.88 ± 0.24 kcal/mol.
In the same order, the values of “SAGGSAGGKPKKVKIKIEITYNKETGVVKIKIEVEVDGKTYTIEIEVKLKPGQTIEELLKKLLESAGGSAGG [r6_20_TrROS_Hall]” are 4.75 ± 0.34 kcal/mol, 2.84 ± 0.24 kcal/mol and 4.46 ± 0.54 kcal/mol.
Take “SAGGSAGGKPKTYIILVIEDPENDKYLALLFDENGKLIGTAPFKSIDELLEKLPKNVKVIVLPASAGGSAGG [r6_492_TrMRF]”: the “folding stability dG unfold” value is 4.47 ± 0.11 kcal/mol in data set [1], 3.6 ± 0.11 kcal/mol in data set [2] and 4.24 ± 0.1 kcal/mol in data set [3].
Regarding “SAGGSAGGKPKVVELELTTEDGSKVRVVFTEDSVYIYNEETGLLVKYNLKTGKFELKEVYPLEESAGGSAGG [r6_462_TrROS_Hall]”, the “folding stability dG unfold” value is 3.24 ± 0.055 kcal/mol in data set [1], 2.15 ± 0.15 kcal/mol in data set [2] and 2.92 ± 0.28 kcal/mol in data set [3].
Take “SAGGSAGGKPTYYVAEVTYPGNLKATVVVEDKDNLTFVIPDTGEVWDLTDLDDIKITPVSADDPSAGGSAGG [r6_222_TrMRF]”: the entries for the “folding stability dG unfold” value in data set [1], in data set [2] and in data set [3] were 0.95 ± 0.14 kcal/mol, 0.633 ± 0.033 kcal/mol and 0.8 ± 0.073 kcal/mol, respectively.
Consider “SAGGSAGGKPVTVEVDIVVKPGDTIEFPPGAKVEIVEKKEVEVNGKKYQVFKIKVTLPPGEEALSAGGSAGG [r6_454_TrROS_Hall]”, for which the “folding stability dG unfold” value in data set [1] came out at 2.854 ± 0.026 kcal/mol; in data set [2], 2.31 ± 0.12 kcal/mol; in data set [3] it was 2.72 ± 0.23 kcal/mol.
In the case of “SAGGSAGGKSPEDRQRENMKPVPPIEVVEIRIPIPPGMPIDQAKNIASNLMEHLGVDYVRIEITSAGGSAGG [r6_517_TrROS]”, the “folding stability dG unfold” value in data set [1] was -0.478 ± 0.21 kcal/mol; in data set [2], 0.679 ± 0.038 kcal/mol; in data set [3], 0.297 ± 0.24 kcal/mol.
“SAGGSAGGKVTVDPAKVKAILTLKDGSKLIVLEDGVLLYNPKTEKVTLVSLSDLKKLPEDAPVPSAGGSAGG [r6_889_TrMRF]”: the “folding stability dG unfold” value in data set [1] stood at 1.85 ± 0.026 kcal/mol; in data set [2], 1.61 ± 0.042 kcal/mol; in data set [3], 1.74 ± 0.054 kcal/mol.
With “SAGGSAGGKWIHINPNSYNIKIQDPGSGKEEEIQFDSPEELIDEIKKQFPGVPVEIHPNGWFKISAGGSAGG [r6_288_TrROS]”, the “folding stability dG unfold” value in data set [1] came to 0.563 ± 0.11 kcal/mol; in data set [2], 0.385 ± 0.022 kcal/mol; in data set [3] it was 0.521 ± 0.091 kcal/mol.
Taken in the same sequence, the figures for “SAGGSAGGKYQEFEYMIMFPDGGMFRVKIEYSPNPGQVKIKIEFPGGEREITIPPGAPITIMPMSAGGSAGG [r6_927_TrROS]” were 2.41 ± 0.054 kcal/mol, 3.17 ± 0.23 kcal/mol and 2.74 ± 0.23 kcal/mol.
In the same order, the values of “SAGGSAGGLEIVLPREELEELIRRGEIDEVEIERSEDDLVRARPIIRPPPPLPPEVGALLRALASAGGSAGG [r6_278_TrMRF]” are 1.91 ± 0.088 kcal/mol, 0.891 ± 0.2 kcal/mol and 1.56 ± 0.37 kcal/mol.
On to “SAGGSAGGLGWGSFKLPFEFWDPANGMPMRNSINIMVIVIPPPPPKVEVEEDPDNGKKKVTYDDSAGGSAGG [r6_926_TrROS]”, for which the “folding stability dG unfold” value in data set [1] came out at 3.31 ± 0.084 kcal/mol; in data set [2], 2.67 ± 0.1 kcal/mol; in data set [3], 2.95 ± 0.46 kcal/mol.
In the same order, the values of “SAGGSAGGLHPDEEFVVLFRIDVRARPVSPNAHPELKKKFPNAVIVEAKIDVLILPKEKVKELFSAGGSAGG [r6_830_TrMRF]” are 3.44 ± 0.082 kcal/mol, 2.84 ± 0.1 kcal/mol and 3.18 ± 0.19 kcal/mol.
In the same order, the values of “SAGGSAGGLPEGDIYRIRVTLPNGNTFTITFPVKSVEQAKDFAKSFLESLGLPDVKVDIEPVPVSAGGSAGG [r6_844_TrROS]” are 4.2 ± 0.044 kcal/mol, 3.53 ± 0.065 kcal/mol and 4 ± 0.074 kcal/mol.
In the same order, the values of “SAGGSAGGMEEIEIEINGKKAKIYRLPGDEDLFLIEVDGELYLVKVKKKDGKWEIVEVKKLDELSAGGSAGG [r6_915_TrROS_Hall]” are 4.25 ± 0.091 kcal/mol, 4.17 ± 0.29 kcal/mol and 4.13 ± 0.16 kcal/mol.
With “SAGGSAGGMEEIVLPIPEEVAKELIASGTVTKTQTEGNRTILTKTPPSGGSTKITVVLPPSYPSSAGGSAGG [r6_654_JUSTAS]”, the “folding stability dG unfold” value in data set [1] came to 1.24 ± 0.1 kcal/mol; in data set [2], 1.2 ± 0.095 kcal/mol; in data set [3], 1.35 ± 0.17 kcal/mol.
Taken in the same sequence, the figures for “SAGGSAGGMELISEKPAKVKYGDKEAEVWVKLVKIPNTDEVLVTLYFPGSGKPRIIPAKDVEIESAGGSAGG [r6_263_TrMRF]” were 0.836 ± 0.18 kcal/mol, 0.655 ± 0.1 kcal/mol and 0.836 ± 0.19 kcal/mol.
As to “SAGGSAGGMELLPDGTLVLTLKAPSLEEALKAAEALAPPGAEVEIRFDEETKEVVIVIKLPPPESAGGSAGG [r6_859_TrROS_Hall]”, the “folding stability dG unfold” value in data set [1] worked out at 4.06 ± 0.046 kcal/mol; in data set [2], 2.46 ± 0.1 kcal/mol; in data set [3], 3.85 ± 0.082 kcal/mol.

(Values after the supplement of paper PMC12764529.)
